Assay results: article PMC10192352 (2023)

Key:
[1] = target: T1, NPNA8 peptide, biotinylated (Plasmodium falciparum, biotin (position not given)); experiment: BLI; 2:1 binding model
T1 chain: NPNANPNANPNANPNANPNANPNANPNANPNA

[2] = target: T1, NPNA8 peptide, biotinylated; experiment: BLI; 2:1 binding model

B1: L9 Fab (Fab, V domains shown)
VH: QVKLVESGGGVVQPGRSLRLSCEASGFIFSTYGMHWVRQAPGKGLEWVAVIWFDGSNIYYADSVKGRFTISRDNSKNTVFMQMDSLRAEDTAVYYCHRNFYDGSGPFDYWGQGTLVTVSS
VL: DIQMTQSPSTLSASVGDRVTITCRASQFISRWLAWYQQKPGKAPKLLIYKASSLESGVPSRFSGSGSETHFTLTISSLQPDDVATYYCQEYTSYGRTFGQGTKVEIK
Kd [1]: 6.26 µM
koff [2]: 0.024 s⁻¹
